The text below walks through data of the nanobody polyreactivity screen of Harvey et al. (2022).

The series in a line: yeast display, Sf9 membrane polyspecificity reagent, FACS + sequencing; frameworks hold sequencing errors. In short, it runs like this: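 Nanobodies from a synthetic yeast display library (Saccharomyces cerevisiae BJ5465), induced 36–48 hours with galactose, were stained 1 hour at 4 °C with 10% biotinylated, detergent-solubilized Sf9 membrane reagent, enriched on streptavidin microbeads, then FACS-sorted. Anti-HA (expression) and streptavidin (reagent binding) fluorescence set low and high (top ~1%) gates. Polyreactivity labels come from the gate of origin. Genes were colony-PCR amplified, MiSeq 2 × 250 sequenced and filtered by CDR length.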
“QDQRVDSGGGLVQAGGSLRLSCTAYGFIFGWYAMGWYRQSPGKASQLVAPISQSVGSTYYADSVKGRFTISRDNAKNTVYLQMNSLKPEDSAVYYCNAVGRGSRSRLSSRAGGGDYWGQGTQVTVSS”: the “polyreactivity (PSR sort gate)” value is reported as “high polyreactivity”.

On to “QDQRVESGGGIDQAGGSLRLSCAASGSTVDFNAMGWYRQAPGTERELVAAITYSGGSTYYADSVKGRFTISRDNAKNTVYLQMNSLKPQDTAVYYCAAEDVYPGSIDMDYWGQGTQVSVSS”, for which the “polyreactivity (PSR sort gate)” value is on record as “low polyreactivity”.

As to “QDQVVESGGGLVQAGGSVRLSCADSGSIFWRNAMGWYRQAPGKEREWVAAITSGGTTNYADSVKGRFTLSRDNAKNTVYLQLNTQKPEVTAGDYCATGASDLRRYDHPHSDVDYWGQGTQVTVSA”, the “polyreactivity (PSR sort gate)” value is “low polyreactivity”. Regarding “QEHLVESGGGLVQAGGTLRLSCAASGGTFYVNDMGWYRQPPGKESELVATITYSGTSTYYADSVTGSFTISRDNAKNTVYLQMNSLKPEDTAVYYGATDVLLYLEPVNLDYCGQGTQVTVSS”, the “polyreactivity (PSR sort gate)” value is “low polyreactivity”. The same measure for “QEQLEESGGGVVQAGGSLRLSCAAYGSIFYAYSMGWYRQAPGKEREFVAASSKRGGSTYYSDSVKGRFTISRDNEKNTVYLQMNSLKPEDTAVYYCYVGYGYWRGVKQSYDRFDYWGQGTQVTVSS”: “high polyreactivity”; for “QEQLLESGGGLVQAGGSLRLSCAASGYISSHIMSWYRQAPGKEREFVDTITDGGTTNYADSVKGRFTISRDNAKNTVYLQMNSLKPEDTAVYYCAAVATYSYHFGYWGHGTQVTVSS”: “high polyreactivity”; for “QEQLQDSGGGLVQAGGSLRLSCAASGYISSLAAMGWYRQAPGKERDLVAGNDLGTITNYADSVKGRLTISRDNAKNNVYLQMNSLKPEDTEVYYCAKYRWYGVYWGQGTHVTVSS”: “low polyreactivity”. Under “QEQLQESAGGLVQACGSQRLSCAASGSISEGQDMGSYRRAPGKEREFVAGIAPGATTYYADSVKGRFTISRDNAKKTVYRQMNSLKAEDTAVYYCAARSVTETDHDYWGQGTQVTVSS” stands “low polyreactivity”. Under “QEQLQESGGGLVHAGGSLRLSCAASGSISQAWYMGWYRQAPGKERELVAAINGGAITYYADSVKGRFSISRDNAKNTVYLPMNSLTPEDTAVYYCAVDQYSEAYYDYWGQGTQATVSS” stands “high polyreactivity”; under “QEQLQESGGGLVKAGGSLRLSCAASGNISNHNDMGWYRQAPGKEREFVAGITAGGITNYADSVKGRFTISRDNAKNTVYLQMNSLKPEDTAVYYCAAYPDYAKSYGYWGQGTQATVSS”, “low polyreactivity”; under “QEQLQESGGGLVQAGGSLRLSCAASGTITVLYKMGWFRQAPGKEREFVASINYGTSTYYADSVKGRFTVSRDSAKNTVYLQMNSLKPEDTAVYYCAAAYRWQDVYRYWGQGTQVTVSS”, “low polyreactivity”. Consider “QEQLQESGGGQVQAGGSLLLSCAASGNIIRYYYMGWYRQAPGKERELVAAITYGTSTNYADSVKGRFTISRDNAINTVYLQMNSLKPEDTAVYYCAVDVNYGDPLDNWGQGTQVTVSS”, for which the “polyreactivity (PSR sort gate)” value is on record as “high polyreactivity”. Under “QEQLVESGGGLVQAGGSLRLSCAASGFIFPGYTMGWYRQAPGKERELVAAISRGSSTFYADSVKGRFTISRDNAKNTVYLQMNSLKPEDTAFYYCNTRVYAITLYDYWGQGTQVTVSS” stands “low polyreactivity”; under “QEQLVESVGGLVQARGSLRLSGAASGYTFKYNALGWYRPAPGKERELVAAITSGGSTNYADSVKGRFTISRDNAKNTVYLQMNSLKPEDTAVYYCAAAQPRTNAYRVGSWGQGTQVTVSS”, “high polyreactivity”; under “QEQQQESGGGLVQAGGSLRLSCSSSGSIILFYTMGWYRHAPVKERECVAGITLGTTTYNADSVKGRFTISRDNVKISVYLQMNSLKPEDTAVDYCAVAVGHYTEFWYWGQGTQVTMSS”, “high polyreactivity”.

Take “QFHHVESGGGLVQAGCSLRLSCGASGLTSAIYVMGLYRQAPGKEREFVADITWNAGSTYYADSVQGRFTISRDNAKNTVYVEMKSLKPEDTAVYYCNAYIVSGFYEYDFWGQGTQVTVSS”: the “polyreactivity (PSR sort gate)” value is recorded as “high polyreactivity”. Under “QFHLLESGGRLDQAGGSLRLSCAASGIIFRGNAMGWYIQAPGKERELVAAISSGGSTYYADTVKGSFTISRDNAKNTVYLKMNCLKPEDTAVYYCNARWYFWGTLYGSWGQGTQVTVSS” stands “high polyreactivity”. The same measure for “QFHLVDSGGGLVQAGGRLRLSCPASGGICYQYAMGWYRQAPGKEREFVAAISRRGGSTYYADSVKGRFTISRDNAKNTVYLQMNSLKPEDTAVYYCAAAPSTRGGYQQMDSWGQGTQVTVSS”: “high polyreactivity”; for “QFHLVESGGGLVQAGGSLRLSCSASGLTFYQNSLGWSRQAPGKEMELVAAIRWGGGSTYYADSVKGRFTISRDNAKNTVYLQMNCLKPVDTAVYYCAAEYYGWPYDYWGQGTQVTVSS”: “high polyreactivity”; for “QFHLVESGRGLVQAGGSLRLSCAASGRIFCVNAMGWYRQAPGKERELVADISSGGSTNYADSVKGRFTISRDNAKNTVYLQMNSLKPEDTAFYYCNARFRFRYKFPSRNSWGQGTLVTVSS”: “high polyreactivity”.

For the sequence “QFQHVESGGCLVQAGGSLRLSSAASGYMFYWYDMGWYRQAPGKERELVAVITSSGLSTYYADSVKGRFTISRDNAKNTVYLQMNSLKPEDTAVYYCNKANTQYSYYFYDYWGQGTQVTVSS”, the “polyreactivity (PSR sort gate)” value is “low polyreactivity”. Under “QFQIVDSVRGLVQAGGSLRLSCAASGITFDFYAIGWYRQAPGKERELVAAISYSGTSTSYADSVKGRFTISRDNAKNTVYLQMNSLKAEDTAVYYCNARIGWTHSYYELDYWGQGTQVTVSS” stands “low polyreactivity”; under “QFQLEESGGGIVQAGGSLRLSCAASGSTFYYNAMGWYRQAPGKERDLVAAITGSGTGTNYADSVKGRFTISRDNAKITVYLQMNSLKTEDTAVYYCAADYVWRGDPINSYLSWYVYWGQGTQVTVSS”, “low polyreactivity”; under “QFQLEESGGGLVQAGGSLRLSCAASGFTFFTYAMGWYRQAPGKERELVAAITTGGSTNYADSVKGRFTISRDNAKNTVYLQMNSLKPEDTAVYYCAVYGYVYGSAVQYDYWGQGTQVTVSS”, “low polyreactivity”. The same measure for “QFQLEESGGGLVQAGGSLRLSCAASGSIFKGYTMGWYRQAPRKVREFVASMSRRGGSTYYADSVKGRFTISRDYAKNTVYLQMNSLKPEDTAVYYCAKDYGKAYDDWGQGTQVTVSS”: “high polyreactivity”; for “QFQLEESGGGLVQAGGSLRLSCADSGIIFFFYAMGWYRQAPGKERELVAAISDDGVSTDYADSVKGRFTISRDNAKNTVYLQMNSLKPEDTAVYYCAAKTERVYPWFSFGYWGQGTQVTVSS”: “low polyreactivity”; for “QFQLVEAGGGLVQAGGSLRLSCAASGRIFTYYAMGWYSQAPGKERELVAAITGSGGSTYYADSVKGRFTISRDNAKTTVYLQMISLKPEDTAVYYCARTDRRLGAHQGDYWGQGTQVTVSS”: “high polyreactivity”. The same measure for “QFQLVESGGGLDQAGGSLRLSCAASGLTFYGYAMGWYRQAPGKERELVAAITWGGGSTYYADSVKGRFTISRDKAKNTVYLQMNSLKPEETEVYYCNADYYLPAIRYDYWGQGTKVTVSS”: “low polyreactivity”; for “QFQLVESGGGLDQAGGSLRLSCAASGRIFDGYVMGWYRQAPGKDRELVAAISSSGGRTYYADSVKGRFTISRDNAKNTVYLQMNCLKPDDTAVYYCAARYGRYRSVDYWGQGTQVTVSS”: “high polyreactivity”.

Consider “QFQLVESGGGLDQAGGSLRLSCAASGRTFCNNAMGSYRQAAGKETELFAAISVLGGSTYYADSVKGRFTISRDNAKYTVFLQMNSLKPEDTAVYYCATRSRGWIAPPWQGSDGLYYWGQGTQVTVSS”, for which the “polyreactivity (PSR sort gate)” value was “low polyreactivity”.
